These are literature values, as cited in article PMC5430804, “Structural and biochemical insights of CypA and AIF interaction” (Scientific Reports, 2017).

The data set deals with AIF(Δ1-121) Δ1-121 (Homo sapiens) (UniProt O95831).
Chain of AIF(Δ1-121) Δ1-121 (Homo sapiens) (O95831 1-121, stated change not applied): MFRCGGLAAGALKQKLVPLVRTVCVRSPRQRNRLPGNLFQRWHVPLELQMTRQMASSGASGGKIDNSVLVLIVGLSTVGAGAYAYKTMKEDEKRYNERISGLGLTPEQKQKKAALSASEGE

Chain of CypA (P62937 2-165): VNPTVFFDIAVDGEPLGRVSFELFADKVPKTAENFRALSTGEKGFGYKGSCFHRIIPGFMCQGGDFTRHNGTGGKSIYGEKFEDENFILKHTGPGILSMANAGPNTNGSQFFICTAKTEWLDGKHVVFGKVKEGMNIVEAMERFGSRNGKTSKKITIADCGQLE

For orientation: Kd means a measure of binding affinity in units of concentration. In the case of CypA (from UniProt P62937), the Kd is 900 nM.
